Here are results for 167 variants from the RNAGym collection of RNA variant scans (doi:10.7554/elife.90254).

To fix the notation:
B1: LINE1-full (parent)
chain: UACGUAGGUGGUUUUCCCCUGAUAGUGCUAAGGGGGCCUGGAAGUUUGGACUGGGCAGAGCUCAACACAGCGUGGCAAAGUGGCUGUGGCUAGACUGCCUCUCUGGAUUCCUCGUCACUCAGCAGGGCAUCUCUGAGAGAAAUGCC

In the series the parent is B1. Description: self-cleavage, relative activity (ratio to wild type); higher = more cleavage; in vitro, sequencing; the parent is a self-cleaving ribozyme.
As for A77U U132G, the self-cleavage is 1.74.
Take A78U U112A: the self-cleavage worked out at 2.12.
With A78C U109C, the self-cleavage is 2.32.
Consider A78G U108G, for which the self-cleavage turned out to be 1.38.
As to A78G U108A, the self-cleavage stood at 1.41.
To A78G U108C belongs 1.64; to A79G U96C, 0.16.
Regarding A79G U96A, the self-cleavage was determined as 0.09.
As for A78G U85A, the self-cleavage was 0.09.
To U81A U104A belongs 1.81.
Consider U81A U104C, for which the self-cleavage is 2.77.
To A78U A140U belongs 1.72; to U81A U91A, 0.93; to A78C A138G, 1.84.
For G80A G127C, the self-cleavage was 1.6.
For the variant A79G G114A, the self-cleavage was found to be 1.23.
To A78U C116G belongs 2.13; to A79U C101A, 1.92.
Turning to A78U U119C, the self-cleavage amounted to 2.05.
With A78G G126C the figure was 1.99; with U81G U115A, 1.28.
To A78U A124U belongs 2.15; to G80U A107G, 0.94; to A78U A141G, 1.96.
Consider A79G C120A, for which the self-cleavage was determined as 1.39.
Consider U81A A140G, for which the self-cleavage turned out to be 1.95.
In the case of U81A C123U, the self-cleavage is 1.01.
As for U81A C146A, the self-cleavage was 2.08.
For the variant U81C U100C, the self-cleavage came out at 1.29.
Regarding A79G G125C, the self-cleavage was found to be 1.28.
To G80A A107U belongs 2.11; to G83A U109A, 0.96.
To U81G A140U belongs 1.35; to A79G G89U, 0.05; to A79G U134G, 0.57.
To A79G U134C belongs 1.25; to U81C U87A, 0.1; to A79G U109A, 1.19.
With A79G U109C, the self-cleavage turned out to be 1.26.
With G82A A117G, the self-cleavage came to 1.77.
With A78G U91C the figure was 0.29; with A78U U143C, 1.31.
To U81A U108A belongs 2.18.
With U81A U108C, the self-cleavage is 2.2.
Regarding A78C U112C, the self-cleavage stood at 1.94.
As to A78U U130C, the self-cleavage turned out to be 2.68.
With A79G U108A the figure was 1.17.
With A79G U108C the figure was 1.61; with U81C U143C, 1.61.
To A79U A117G belongs 2.57.
On to A79G U100A, for which the self-cleavage was 0.71.
For the variant U81A U87C, the self-cleavage stood at 0.19.
In the case of U81A U87A, the self-cleavage is 0.11.
To U81C G114A belongs 1.17.
As for G80C G86U, the self-cleavage was determined as 0.04.
Consider A79C U134A, for which the self-cleavage was determined as 1.24.
To G80U A138G belongs 1.45; to A79U C99A, 0.31.
With A79G A94G the figure was 0.35; with A79U U143C, 2.02.
For A79U U143A, the self-cleavage is 1.29.
With U81C U96A the figure was 0.1.
Turning to U81C U96C, the self-cleavage was determined as 0.2.
Take A78U U100A: the self-cleavage worked out at 1.13.
With G80U A121G the figure was 1.5; with A78U U115C, 1.72.
With U81C U134A the figure was 0.94.
To U81C U134C belongs 1.36.
As to A79G U132G, the self-cleavage came out at 0.63.
To G83U U102C belongs 0; to G80A A94G, 0.23; to A78G C90U, 0.03.
U81C U112C: the self-cleavage stood at 1.26.
As to G82U A129G, the self-cleavage amounted to 1.54.
In the case of G80C A141G, the self-cleavage was 1.04.
To A78G U96A belongs 0.06; to A78G A121U, 0.67; to A78G A121G, 1.24.
With A78G A121C the figure was 1.9; with G80A A138G, 2.06.
With A78G U87C the figure was 0.15; with A78G U87A, 0.1.
In the case of A79G A121U, the self-cleavage amounted to 1.13.
With A79G G137A the figure was 1.03.
Turning to A79G C101A, the self-cleavage turned out to be 0.68.
With G82A the figure was 1.75; with G82U, 1.52; with U81C A138C, 2.23.
As to U81C A138U, the self-cleavage is 1.22.
With G82U A117U the figure was 1.3; with A78U A136C, 2.73; with U81C U91A, 0.56.
With A78U U96A the figure was 0.07.
Turning to A78G U109C, the self-cleavage amounted to 1.38.
For the variant U81C A117C, the self-cleavage is 1.59.
Take U81C A117U: the self-cleavage was found to be 1.56.
With G80C A121G the figure was 1.18; with U81A U100C, 2.98; with A79G C84G, 0.07.
On to U81C U104C, for which the self-cleavage came out at 1.48.
Take A79G G80A: the self-cleavage was determined as 1.89.
For G80A U87C, the self-cleavage worked out at 0.2.
With U81A A94G the figure was 0.37.
To U81A A94U belongs 0.6; to G83A A124U, 0.79; to A78G U115C, 1.51.
For G83C U143G, the self-cleavage came to 1.08.
With A78C U96C the figure was 0.29; with U81C U109C, 0.38.
To G82U U112C belongs 1.18; to A78G U134G, 1.07.
A78G U134A: the self-cleavage amounted to 0.9.
As for A79G G105A, the self-cleavage was 1.29.
Consider A79G G105U, for which the self-cleavage stood at 1.19.
Regarding U81C C111U, the self-cleavage came to 1.75.
To A78U A117G belongs 2.93; to A78U A117C, 2.72; to A79C A129G, 1.93.
As for U81G A124U, the self-cleavage worked out at 1.75.
With G80C U109C the figure was 1.27; with A78G G106A, 1.45; with A79G G88U, 0.05.
With A78U G127C, the self-cleavage was found to be 2.34.
To A79C G89A belongs 0.09; to G80A G126U, 2.06.
With A78G C116U the figure was 1.29.
With A79G U130A the figure was 1.09; with A78G U81C, 1.62; with A78G U81G, 0.34.
Regarding U81C A124U, the self-cleavage was determined as 0.74.
With U81C A124G, the self-cleavage worked out at 1.25.
As to A79G A117G, the self-cleavage is 1.27.
To A78U U102C belongs 1.12; to A78G G127A, 1.16.
To A79G A140G belongs 1.12; to U81C A140U, 1.9.
To A78G C146U belongs 1.06; to A79U U109C, 1.34; to A79U U109G, 1.1.
Regarding A79G A138C, the self-cleavage amounted to 2.4.
To A79U U108C belongs 2.3; to A79U G86A, 0.07.
To G83A C90U belongs 0.06.
As to G83A U130C, the self-cleavage was found to be 1.13.
To A79U A107U belongs 1.74; to G82A U91C, 0.94.
With G83A U96C the figure was 0.11; with A78G A138C, 1.31; with A78G A138G, 1.69.
To A79G C145U belongs 1.09.
Turning to A79C A92G, the self-cleavage stood at 0.24.
With G82A G114C the figure was 3.
With A78C U108C the figure was 2.16.
With A79G U102C the figure was 0.89; with A79G U102A, 1.12; with A78U C84A, 0.18.
Take U81A C118U: the self-cleavage came out at 1.78.
With A79C A138U the figure was 2.19; with A79U A121C, 1.64.
Take U81C C146A: the self-cleavage was determined as 1.8.
To A77U U143G belongs 1.48; to A77U U143C, 1.04; to A79G A92G, 0.18.
To A79G A92U belongs 0.66.
Take A79G G82U: the self-cleavage stood at 1.32.
With A78U G122A the figure was 1.36.
Turning to A79C A121G, the self-cleavage came to 1.67.
